Laboratory results from the DeepSol protein solubility set.

Test: soluble on expression in E. coli; label from the status in PepcDB or PDB records

Soluble on expression in E. coli, not soluble:
MSRRRQFDDEDEVQMKRRRGAPLIEDVEKKLQGVIGKVGENTGSSIECNLDKLTAFLHDDLEKYRASIIDIIAGCAIYLPNRVTVYTTLVGLLNSKNFNFGGDVVEKLISEQQDLLSKQKYQEAQNLAIFLCDLGNSGVLTAQSIGEYLESFIAAAFEENMPQVRNDYYIQTVLRCLPWIGKELTEKAPEQMENIGEAIGKYLELRNKNHVALLQVWREGSTDQKQEDYLESLSAQIEALRNADWVENHIPRHYSGFETTLQDALQHNLPSFQSPEHTSDMIYPYPLVVFRLFQDADCSAFSSKPLPGDSSIDRFLFEGEIAWIIEKNQFNRKACARELLAFAEENPSVPIGFLIFETIFGQMLRLPHAPYPAIFHCSLVLELLKLKPDDYPQILVQTVECIYRRADSMQPVCIDRMVDWFSFHLSNFQYRYTWTDWKDCLNKDAFSGSQIFVREVIEKCRRFGSYEKIIAALPQDFVKIHPCSPEVRYLIDEEDTALVQRAETFTQMFQERQPAEAFLNELKSNDENDELPYNINEFGLFVMVMLKMASKTYSHNFSALFRYQTTLKTVCDASELYQEKLLETLYSCWKTNQQMLMILTDKLLKMQVIDCSAVVGWLFDEKMWQEHDRQWLFEVLNQALEKLTRQINVVEKDIKELTEKTENKIKEEDDEESDIKMDEDETKEEKFKQDLEDLENNKEKLERMVTFQKGLFNDFLIAFIEEIKNAATSNTSEMDGSGDTPGTQTPKFMWLRGRFCHVLLAHAETLLKHSSNIADEVFSEGTDPSIIECFNQFQSLRL, MGSDKIHHHHHHMTAAVKTTPGFASRLVNGVLAIKPLANLAKHQARQMMIKRAERIGVPWTKEVKTLQARDWKADLTQIENSQLSYPDYYVTSFHAYETGNLSWQAAFEVEPAAYAVHSKVVEGAEEAQGDPMLRQSYHNILKSQIPNEPQDILDVGCSVGLSTFALQAVYSQAKIIGLDLSPYFLAVANYRAQQRQAKINWLHAQAESTGLPDASFDLVSIFLMCHELPQSATRQILAEMRRVLRPGGYLAIMDMNPKSEVYQKMPAYILTLLKSTEPYLDEYFALDIEQAFVEAGFQTPTITNNTHRHRTVIAQVSG, MAQGYRRDHNHHHESGYKRPSDPGGDLPSDKRHRPPPAEGRTLSADRRLYERHFPLYKQPLELGCFSLDARRNFFNDHRQLRYYVEPRRSPDFNLRDGYTSRFIKRDDGVKEKLDHMLRWILENRHKMQNSNSSSCALGVDFITWRGHLTKVLTTPYETQEGWMMAACKFRGSIYISEVETEQARENRETRSERQEEMMYWGYKFEQYTCADGADGTPDPGGVVNTNEAFCTVVQTRLADQSQTLRV, MAHHHHHHMKKPEHVRNIVYEIKRKVQIPVSVKIRTGVDDCDSFPFLRSFIECVSSVGCTHFIVHARKAWLKGLDPKQNRSVPPLQYSKVYTLCQLYPHLKFTLNGGIKTIEEAVALLNGYLPREDKCDGEKTYVQVQNYHVNPLNGVMLGRACMENTTVLSQTDQLVYNEKPPHTAFSRRTVLDAYKSYLEENSSLCSLSSAFELLKPILGILKGMPGHRIFRNKVDMYIRNYSSTLPCSGILEKAMVDVDAVAPGCLDLPLADYKLQQEYIKNY, MGSDKIHHHHHHMRLVNIAYVGEGEVLARPLVSPNGKVLLQAGVKLTRNYIDKLSRLGFDTMFIEDDTFQDVEIYSAVSIKTREAAYASLENLSKNLNEAQPHTVNLGEVKKAVQNIIADLLYSKDMLGNVMEIQGYDDYTFHHSVNTTIIALIMGISMGWHNGKLLELGMGVLMHDVGKIKIPSEILNKRGPLTPEEFAEIKKHAEYGFEILRKNHDINLLSAHIALQHQERWDGSGYPRGLKGNQIHEYGRLAAVADVYEALTSKRVYRNALQPYEAYEYVIANSDTLFEPKVVQNTFSKCITPYPTGTGVRLTNGLRGNVVKQNFTFPTRPYVRMTHEGEIRLIAPIDYNLAEHPSLMIVGIENK, YAGTSDAPYTGGFMNTFNYRNWELNLNFSYNLGAHVKTDPTYYIADPDPGRNMNRDILDRWTPENKNGKFPALTSLNTNPADYYLFSTRRDLYKSLDIWVKKLSYIRLQNIRLAYHFPSEWLHKLNIGGATVGLEARNLFVFGSSYKNYMDPESMSNLYSTPVPKSVTFNLSLNF, MGKNLLREKKRLIRQKILFLTGENESWMKNPEIVKEVQRLSKQLESDLIADKRPLPSLDPDKLTKEKYQHFLDLGYQVGDIKKALGLGTTTFQNWRKANGIENKINRKQKKEESKLMKFNIHTASLLLPGTFGAEGKECITISKSGLALSGPVVRRLNKPEWIQLYLDESRLALFVIPCKATDEGARSCVNPKSKKKAGYRKSWSGSILEKVAKASKMDIENHRYHVEPESVEGYPTALGFDLTKAVKN, MGSDKIHHHHHHMRKMRKASRLFEIIQILRLARQPVTAAMIAERLEVTIRSIYRDIAALQAMRVPIEGGRGIGYILRPGFDLPPLMFSIEEMEAIVLSLALLERTGDDELKQAAKRVSSKIAGAVPPPLRQTFDANALHAWGFAAPSAGTIDLALVRRAIRDEEKLDLSYRDEAGRTTQRIIRPIALIYYAEAVNTVAWCELRQAIRNFRSDRIEGCQPTGLHFKGEGDRLRQIWVEGWETPAVGG, MAHHHHHHMSVGKPITRDSSKQLWRHIKSSGEEELTYTHNPYDDSPNRRKEREKSLNVCRHYAEGRCNRGSTCRFHHETRHNIIVTPHVTPKFSSIAPLKGLPTSPLGAYLSSPPNRSCNGCLLSPTHHNNSMSYNSSTNSSMKILSESSSTIPHLQLPESLSTHCRSSTYVASGMNGEQPPHDVLILSSSLGSLNVGDHVSRNNGGFLLTAQQR, MGSDKIHHHHHHTQTTEKENEFSMSMQIRPRAEYRNGALVPRNEGQKAASFINNRARLSLDYKRSDLEIKMSAQHVGVWGQDPQIDKNGRFILNEAWAKLDFGKGFFAQLGRQTLVYDDERILGGLDWNVAGRYHDALKLGYANKNNEIHAILAFNQNDEKTAGGTYYNSSIGQPYKNMQTVWYHYKADKIPFGASLLFMNLGLETGNQLTQDSHTRYLQTMGTYLTYKNSGWNLDGAFYYQTGKNKDAESVSAFMASATAAYAFNKTWGMVVSFDYLSGNEEGSSKFKAFDPLYGTHHKFYGSMDYFYASAFNKGFAPGLIDGRLGARFRASAKVDMELNYHYFATATEVDFKEDLKKSLGSEVDYQINWSVMKDVKLSAGYSFMLGTKTMDAVKGGNHKSWQDWGWVSVNINPKVFFTKW, MSLAHIRTRETYGTRRLQTELAENGIIVGRDRLARLRKELRLRCKQKRKFRATTNPNHNLPVAPNLLNQTFAPTAPNQVWVADLTYVATQEGWLYLAGIKDVYTCEIVGYAMGERMTKELTGKALFMALRSQRPPAGLIHHSDRGSQYCAYDYRVIQEQSGLKTSMSRKGNCYDNAPMESFWGTLKNESLSHYRFNNRDEAISVIREYIEIFYNRQRRHSRLGNISPAAFRENIIRWLLKKRTNGSVRYCQYTSKVAMIYIEQLELIHKSGDVLYPVKITRKSSGKTAFHLVPFGLNKTHDLLEVEDASEAIRLVIDERHSIRCSTLTATITNKKGKRIKRTGIYSIKGVNIKEYNVREGHHHHHH, MGSDKIHHHHHHMAHADIFNAIYTNKVWGNGSGEGSAEELTRDYRKFLHNFLRANHIRSVVDLGCGDWQFSRHMDWSGIEYCGIDVSSVVLETTRNFSAPNIRFQEMNGIEGELPSADLLICKDVVQHWSNTDILQLFPKLPRFRLALITNAFHPAITENQDIVTGDFRPLNLLAKPFDIKGSYIYCFMAGEPKGVFLWSRGD

Soluble on expression in E. coli, soluble:
MFSAKKLSPADKLKNISSMLEEIVEDTTVPRNIRAAADNAKNALHNEEQELIVRSATAIQYLDDISEDPNMPIHTRTQIWGIVSELETIK, SNAVRQVEEYIEANWMRPITIEKLTALTGISSRGIFKAFQRSRGYSPMAFAKRVRLQHAHNLLSDGATPTTVTAAALSCGFSNLGHFARDYRDMFGEKPSETLQRARP, MSLSGCNGVPTSYVSDPVYSQAFVVTSGAPLPMLLMASAIQWNEDYAVTAKHTPFLRNVVHEGLGDVVFFKHKASSVPHWRQYVPGEAVTAVGFNSFMMPMQGKGHALSSLVRLEGTPGSVFYSVHDGPITKGMSGGPVFADDGKVVGINVAIIPTDEINAGKRPDLVGKDRISVFMSFSEIDKEWRRYQYLLAHKAKPKAPAAVKGYVAVAAKEGHHHHHH, MRSDVIKKGLERVPHRSLLKALGITDDEMRRPFIGIVSSWNEIIPGHVHLDKVVEAVKAGVRMAGGVPFVFPTIGICDGIAMDHRGMKFSLPSRELIADSIEIVASGFPFDGLVFVPNCDKITPGMMMAMGRLNIPSVLISGGPMLAGRYNGRDIDLITVFEAVGGYKVGKVDEETLKAIEDLACPGAGSCAGLFTANTMNSLAEALGIAPRGNGTVPAVHAKRLRMAKEAGMLVVELVKRDVKPRDIVTLDSFMNAVMVDLATGGSTNTVLHLKAIAESFGIDFDIKLFDELSRKIPHICNISPVGPYHIQDLDDAGGIYAVMKRLQENGLLKEDVMTIYLRKIGDLVREAKILNEDVIRPFDNPYHKEGGLGILFGNLAPEGAVAKLSGVPEKMMHHVGPAVVFEDGEEATKAILSGKIKKGDVVVIRYEGPKGGPGMREMLSPTSAIVGMGLAEDVALITDGRFSGGSHGAVIGHVSPEAAEGGPIGIVKDGDLIEIDFEKRTLNLLISDEEFERRMKEFTPLVKEVDSDYLRRYAFFVQSASKGAIFRKPAAALEHHHHHH, MKDFWTWERLSFHMVLAYNDDRSFLINTGMPLDLTLRNQEMKKFAGDRAIFRSEDSIEMLRKAGFTPDDIDYVALTPVQDYTIGRLNEFRKSKIFIFRDGWIKDIAAPAYAYFHNRDLFIPKNIFDFVYGEGWKNIIFYDGETELVPGIRAIPVGCHHRSSVAFAINAKDGTYVFTDASFKAENVRNRIPIGIAENIYECLSAYEKIEKIGKLLPAYDPAIDDLYIKLEHHHHHH, SRLDIIRAEMDVVPSPGLPEKVNEKSKNIPLPEGINLLSSKEIIDLIQTHRHQLELYVTKFNPLTDFAGKIHAFRDQFKQLEENFEDLHEQKDKVQALLENARILESKYVASWQDYHSEFSKKYGDIALKKKLEQNTKKLDEESSQLETTTRSIDSADDLDQFIKNYLDIRTQYHLRREKLATWDKQGNLKY, MSLVQSAVLGFPRIGPNRELKKATEGYWNGKITVDELFKVGKDLRTQNWKLQKEAGVDIIPSNDFSFYDQVLDLSLLFNVIPDRYTKYDLSPIDTLFAMGRGLQRKATETEKAVDVTALEMVKWFDSNYHYVRPTFSKTTQFKLNGQKPVDEFLEAKELGIHTRPVLLGPVSYLFLGKADKDSLDLEPLSLLEQLLPLYTEILSKLASAGATEVQIDEPVLVLDLPANAQAAIKKAYTYFGEQSNLPKITLATYFGTVVPNLDAIKGLPVAALHVDFVRAPEQFDEVVAAIGNKQTLSVGIVDGRNIWKNDFKKSSAIVNKAIEKLGADRVVVATSSSLLHTPVDLNNETKLDAEIKGFFSFATQKLDEVVVITKNVSGQDVAAALEANAKSVESRGKSKFIHDAAVKRRVASIDEKMSTRAAPFEQRLPEQQKVFNLPLFPTTTIGSFPQTKDIRINRNKFNKGTISAEEYEKFINSEIEKVIRFQEEIGLDVLVHGEPERNDMVQYFGEQINGYAFTVNGWVQSYGSRYVRPPIIVGDLSRPKAMSVKESVYAQSITSKPVKGMLTGPITCLRWSFPRDDVDQKTQAMQLALALRDEVNDLEAAGIKVIQVDEPALREGLPLREGTERSAYYTWAAEAFRVATSGVANKTQIHSHFCYSDLDPNHIKALDADVVSIEFSKKDDANYIAEFKNYPNHIGLGLFDIHSPRIPSKDEFIAKISTILKSYPAEKFWVNPDCGLKTRGWEETRLSLTHMVEAAKYFREQYKNEGHHHHHH
